# Data published in paper PMC6613818.
# System: C[C@@H]1O[C@H](OP(=O)(O)OP(=O)(O)OC[C@H]2O[C@@H](n3cnc4c(=O)[nH]c(N)nc43)[C@H](O)[C@@H]2O)[C@@H](O)[C@H](O)[C@@H]1O
# Assay: purified protein
# Conditions: apparent, acceptor LacNAc 3 mM, Tris-HCl pH 7.5, 37 °C
substance,measurement,value
Hp3FT (Helicobacter pylori),Km,6.4480 ± 1.1360 mM
same,kcat,0.617 ± 0.0417 s⁻¹
same,kcat/Km,96 M⁻¹ s⁻¹
